Source: patent US7060670B1, “Stereoselective antifibrillogenic peptides and peptidomimetics thereof” (Neurochem (International) Limited, priority 1999, dated 2006)
Entries after “also recorded” stand apart in the source; their conditions may differ. Non-standard residues stand in square brackets, D forms with d. No end group written: not given here.

Tests used:
Aβ(1–40) = molecular target: T1, Aβ(1–40) (Homo sapiens, UniProt P05067); experiment: thioflavin T fluorescence assay for fibrillogenesis of Aβ(1–40); assay type: biochemical; conditions: for Order Of Potency of Peptide Inhibitors, Tested at 20 μM / Order Of Potency of Peptide Inhibitors, Tested at 80 μM: rank, 1 = strongest activity, 11 = weakest, Aβ(1–40) 20 μM, by first appearance of fluorescence over 5-90 hours; for Order Of Potency of Peptide Inhibitors, Tested at 20 μM: peptide 20 μM; for Order Of Potency of Peptide Inhibitors, Tested at 80 μM: peptide 80 μM; for concentration required to give an equivalent inhibition: all-[D] versus all-[L] stereoisomer; for inhibition of [L]-Aβ (1–40) assembly/fibrillogenesis compared with the opposite stereoisomer: FIG. 2, all-[L] Aβ (1–40)
T1 construct: Aβ (1–40) 95% purity (American Peptide Company); purchased American Peptide Company, Inc 62-0-78
T1 sequence (P05067 672-711 limits assumed): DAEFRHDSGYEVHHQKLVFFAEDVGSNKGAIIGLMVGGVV
Excerpt: The thioflavin T fluorescence assay for fibrillogenesis is based on the principle that the fluorescent dye, thioflavin T, binds specifically to fibrillar, but not to unaggregated Aβ peptide (LeVine III, H., 1993, Protein Science 2:404–410). Upon binding, thioflavin T develops a characteristic fluorescence (Naiki, H., et al., 1996, Lab. Invest. 74: 374–383) which can be easily detected. The dye is believed to interact with the stacked cross-β pleated sheets, the common structural motif of all amyloids (LeVine III, H., 1995, Amyloid: Int. J. Exp. Clin Invest. 2:1.6). Thioflavin T is widely used to assay the effect of compounds on Aβ peptide fibrillogenesis (Bronfman, P. C., et al., 1995, Neuroscience Lett. 218:201–203). In this assay test compounds are incubated with a solution of Aβ(1–40) (20 μM) containing 10 μM thioflavin T, in 0.02M Tris/0.02M acetate/0.15M NaCl/0.005% azide/pH 7.40 at 37° C. in sealed 384 well microplates. Readings (ex 430 nm/em 485 nm) are taken at various time intervals with a microplate fluorescence reader. An increase in fluorescence signifies the appearance of amyloid or intermediates in the production of amyloid. Inhibitors of fibrillogenesis will lead to less fluorescence production. The results illustrated in Table 1 below, are based on the fluorescence production in the presence of test peptides at either 20 μM or 80 μM concentration, at the time intervals of 5, 19, 45, 67, 77 and 90 hours, compared to a control, buffer alone, without added inhibitory peptide. Protocol Aβ peptide: Aβ (1–40) 95% purity (American Peptide Company, Inc, Sunnyvale, Cal. USA, cat. 62-0-78) is disaggregated in trifluoroacetic acid and filtered through a […] filter, (Whatman Anotop 25 plus, 0.02 μm, Catalogue no. 6809 4102) in hexafluoroisopropanol (HFIP). Solutions of Aβ (1–40) at 600 μM in HFIP are stored at −80° C. Assay mixture: The mixture is prepared as two solutions that are combined upon addition to the 384 well microplate (Corning Costar cat. 3705). • i) Solution A consists of test peptides in 0.02M Tris/0.02M acetate/0.15M NaCl/0.01% azide at pH 7.40 or buffer alone (control), • ii) Solution B consists of Aβ(1–40) 40 μM, thioflavin T 20 μM in 0.02M Tris/0.02M acetate/0.15M NaCl at pH 7.40. This solution is prepared by drying the Aβ peptide under nitrogen and then resuspending this in 0.04M Tris base with 15 minutes sonication. An equal volume of 0.04M acetic acid containing 0.3 M NaCl is added and the solution is adjusted to pH 7.40±0.02. A small volume of 5 mM thioflavin T is added to the solution to give a final 20 μM concentration of thioflavin T. • iii) The microplate is loaded with 40 μL of solution A followed by 40 μL of solution B which gives a final 20 μM Aβ(1–40), 10 μM thioflavin T, and either 20 μM, 80 μM or 100 μM test compound in 0.02M Tris/0.02M acetate/0.15M NaCl/0.005% azide, pH 7.40. The plate is sealed and loaded into the microplate fluorescence reader. Fluorescence measurement data analysis: The HTS-7000 Bio Assay Reader, Perkin Elmer, is used to perform kinetic runs of about 5 days. Readings were taken at various time intervals, 5, 19, 45, 67, 77 and 90 hours, with one minute shaking before each reading. Bandpass filters used were: excitation 430 nm, emission […]. Calculations The rank order of efficacy of the peptides is determined by observing which peptides allow the appearance of fluorescence, above the background level, first. For example in the presence of buffer control alone, fluorescence appears earlier than when any of the peptides is present.

125I-LBMP1620 = conditions: peptide synthesized by SPOT technique; cited from earlier work
IAPP = molecular target: T2, IAPP (Homo sapiens, UniProt P10997); experiment: IAPP fibril formation (thioflavin T assay, circular dichroism, electron microscope); assay type: biochemical; conditions: circular dichroism and thioflavin T assay
T2 sequence (P10997 34-70 limits assumed): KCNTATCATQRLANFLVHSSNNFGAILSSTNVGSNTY
Excerpt: Other amyloidogenic peptides such as IAPP, have also been tested.
The full-length IAPP is 37 amino acids and the β-sheet region is the 20–29 sequence. The 20–29 sequence is critical for forming β-sheet and has been previously shown to be a key region in modulating IAPP aggregation and folding.
Hexapeptides spanning the 20–29 region (Ser-Asn-Asn-Phe-Gly-Ala-Ile-Leu-Ser-Ser) of the IAPP protein were synthesized and tested for their ability to prevent fibril formation as determined by circular dichroism and the thioflavin T assay. […] These peptides (Ser-Asn-Asn-Phe-Gly-Ala- and Asn-Asn-Phe-Gly-Ala-Ile) were directed towards the central core of the 20–29 region.

Aβ40 = molecular target: T3, Aβ40 (Homo sapiens, UniProt P05067); experiment: CD spectrum of Aβ40 incubated with peptide (β-sheet content); assay type: biochemical
T3 construct: when incubated with Aβ40 under physiological conditions
T3 sequence (P05067 672-711 limits assumed): as the sequence (P05067 672-711 limits assumed) above
Excerpt: It is the understanding of the inventors that this interesting observation will lead to a greater understanding of fibrillogenesis of Aβ40 and Aβ42 peptides and as a result, will provide important information for the design of potent anti-fibrillogenic compounds for Aβ, other amyloidotic peptides such as AA, AL and IAPP for the treatment of diseases such as Alzheimer's, Type II Diabetes and amyloidosis related disorders. The same principle can also be applied to the design of peptide type compounds for the inhibition of binding of various chemokines to the cell surface as well as inhibition of self assembly and cellular adherence of prion proteins.

Aβ = Aβ (Homo sapiens, UniProt P05067); experiment: Aβ-NBD environmental probe fibrillogenesis assay; assay type: biochemical
Sequence of Aβ (P05067 672-711 limits assumed): as the sequence (P05067 672-711 limits assumed) above

[1] = tested on: SH-SY5Y human neuroblast cell line; experiment: MTT cytoprotection assay, Aβ (1–40) toxicity on SH-SY5Y cells; assay type: cell-based; conditions: FIG. 6, 100 μM test peptide, listed as all-[D]-Lys-Lys-Leu-Val-Phe-Phe-Ala
Description: FIG. 6 uses the MTT assay on SH-SY5Y cells.
A SH-SY5Y human neuroblast cell line (American Type Culture Collection, cat. CRL-2266) is cultured according to technical specifications. Monomerized Aβ (1–40) is prepared using trifluoroacetic acid and hexafluoroisopropanol, in the same way already described for the thioflavin T fluorescence assay. Monomerized Aβ at various concentrations in TANA buffer (0.02 M TRIS base pH 7.4, 0.02M acetate, 0.15 M NaCl) is added to 100 μM test peptide and the mixture is incubated for 24 hours at 37° C. with agitation, in order to allow polymerization to occur. Cells are adhered to a 96-well microplate for 2 hours at 37° C. and 5% CO2 before the Aβ-peptide mixture, or buffer alone (control), is added. The microplate is gently agitated and incubated for 20–24 hours at 37° C. and 5% CO2. Cell viability is determined by a MTT-based colorimetric assay. The MTT assay (Boehringer Mannheim, Cell Proliferation Kit 1) is based on the principle that the yellow tetrazolium salt MTT is cleaved in metabolically-active cells to produce purple formazan crystals. The formazan crystals are solubilized and the resulting colored solution is quantified using a scanning multiwell spectrophotometer (ELISA reader, Absorbance A560 nm). Cellular toxicity was calculated as follows: […]

[2] = tested on: fetal rat primary cortical neurons; experiment: propidium iodide assay on primary cortical neurons with Aβ; assay type: cell-based; conditions: FIG. 7; compared to Congo red and Aβ alone; 3 days; listed as all-[D]-Lys-Leu-Val-Phe-Phe-Ala
Description: FIG. 7 uses the propidium iodide assay on primary cortical neurons. Briefly, fetal rat primary cortical neurons are isolated and cultured according to Durkin, J. P. et al., J. Neurochem., 66:951–962, 1996. Neurons are plated in a 48 well microplate. 7 days after plating the neuronal culture media is supplemented with B27 (Life Technologies, Data sheet form No. 3755). A mixture of Aβ and test peptide is added to the cortical neurons for 3 days at 37° C. and 5% CO2.
Cell viability is then visually assessed as the proportion of phase-bright cells that exclude propidium iodide, since only dead cells take up propidium iodide.

Substance | Order Of Potency of Peptide Inhibitors, Tested at 20 μM (Aβ(1–40)) | Order Of Potency of Peptide Inhibitors, Tested at 80 μM (Aβ(1–40)) | further results
Lys-Leu-Val-Phe-Phe [(D) KLVFF] | 9 (D) KLVFF | 10 (D) KLVFF | 125I-LBMP1620 binding (125I-LBMP1620): failed to bind
NNFGAI [hexapeptide from the 20–29 β-sheet region of IAPP] |  |  | blocking of IAPP fibril formation (IAPP): capable of blocking the formation of IAPP fibrils
Lys-Phe-Val-Phe-Phe-Ala ([dK][dF][dV][dF][dF][dA]) [(D) KFVFFA] | 4 (D) KFVFFA | 1 (D) KFVFFA | 
SNNFGA [hexapeptide from the 20–29 β-sheet region of IAPP] |  |  | blocking of IAPP fibril formation (IAPP): capable of blocking the formation of IAPP fibrils
KKLVFFA [reference compound] | 10 (L) KKLVFFA | 7 (L) KKLVFFA | concentration required to give an equivalent inhibition (Aβ(1–40)): 400 µM
Asp-Asp-Asp (DDD; peptide having antifibrillogenic activity and/or neuroprotection) [tripeptide] |  |  | β-sheet content of Aβ40 by CD spectrum after 24 hours incubation (Aβ40; 24 hours): no trace of β-sheet conformation; β-sheet content of Aβ40 by CD spectrum at time t=0 (Aβ40; physiological conditions, t=0): slight decrease
AFFVLK [reference compound] | 11 (L) AFFVLK | 11 (L) AFFVLK | 
Lys-Ala-Val-Phe-Phe-Ala ([dK][dA][dV][dF][dF][dA]) [(D) KAVFFA] | 7 (D) KAVFFA | 6 (D) KAVFFA | 
Lys-Leu-Val-Phe ([dK][dL][dV][dF]) [(D) KLVF] | 6 (D) KLVF | 9 (D) KLVF | 
Ala-Phe-Phe-Val-Leu-Lys [(D) AFFVLK] ([dA][dF][dF][dV][dL][dK]) | 5 (D) AFFVLK | 1 (D) AFFVLK | 
Lys-Lys-Leu-Val-Phe-Phe-Ala [(D) KKLVFFA] ([dK][dK][dL][dV][dF][dF][dA]) | 2 (D) KKLVFFA | 1 (D) KKLVFFA | inhibition of [L]-Aβ (1–40) assembly/fibrillogenesis compared with the opposite stereoisomer (Aβ(1–40)): much more potent inhibitors; concentration required to give an equivalent inhibition (Aβ(1–40); listed as all-[D] stereoisomer peptide): 6.1 µM; potency of all-[D] relative to all-[L] stereoisomer peptide (Aβ(1–40); from 400 μM all-[L] versus 6.1 μM all-[D]): about 60 times; potency at lowest concentration tested versus highest concentration of all-[L] peptide (Aβ; all-[D] 25 μM versus all-[L] 800 μM): more potent than the highest concentration of the all-[L] peptide; potency of all-[D] relative to all-[L] stereoisomer peptide (Aβ; estimate from 25 μM all-[D] versus 800 μM all-[L]): at least 30 times; inhibition of Aβ (1–40) neurotoxicity (cytoprotection) [1]: potent cytoprotective agents; also recorded: more potent inhibitor
Lys-Ile-Val-Phe-Phe-Ala ([dK][dI][dV][dF][dF][dA]) [(D) KIVFFA] | 1 (D) KIVFFA | 5 (D) KIVFFA | 
Lys-Leu-Val-Phe-Phe-Ala [(D) KLVFFA] ([dK][dL][dV][dF][dF][dA]) | 3 (D) KLVFFA | 1 (D) KLVFFA | inhibition of [L]-Aβ (1–40) assembly/fibrillogenesis compared with the opposite stereoisomer (Aβ(1–40); listed as all [D]-Lys-Leu-Val-Phe-Phe-Ala): more potent inhibitor; inhibition of [L]-Aβ (1–40) assembly/fibrillogenesis compared with the opposite stereoisomer (Aβ(1–40); listed as all-[D]-Lys-Leu-Val-Phe-Phe-Ala): much more potent inhibitors; cytoprotective activity against Aβ [2]: potent cytoprotective agents; also recorded: potent cytoprotective activity
